In the RNAGym collection of RNA variant scans (doi:10.1073/pnas.2313332121):
This sample holds only a part of the variants without activity.

B1: TPR 5TU (parent)
chain: GGAUCUUCUCGAUCUAACAAAAAAGACAAAUCUGCCACAAAGCUUGAGAGCAUCUUCGGAUGCAGAGGCGGCAGCCUUCGGUGGCGCGAUAGCGCCAACGUUCUCAACUAUGACACGCAAAACGCGUGCUCCGUUGAAUGGAGUUUAUCAUG

Variants of: B1
Test: polymerase ribozyme fitness, log enrichment relative to wild type (log ratio); higher = more active; in vitro selection for triplet polymerase activity
Procedure, shortened: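 Fitness is a logarithmic measure of how a genotype enriched relative to the wild type, with replicate averages weighted by inverse variance. The logarithm uses base 2, and enrichment came from Illumina sequencing of input and output libraries. Those libraries were PCR-built, transcribed mutants of each subunit of a heterodimeric triplet polymerase ribozyme, passed through one triplicate in vitro selection round that included frozen incubation at −7 °C, gel excision of extended constructs and streptavidin-bead capture. Genotypes were kept only if they had ≥10 input reads and ≥1 read per output.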
In the case of C10U G74C G88C A110G, the “polymerase ribozyme fitness (log ratio)” value is reported as no more than -4.2.
For C10U A41G A64G G65C A91C, the “polymerase ribozyme fitness (log ratio)” value was no more than -4.2.
With C10U A30U A49C C87U A89G C95G U104C C116U A119U G136C the “polymerase ribozyme fitness (log ratio)” value was no more than -4.2.
For U9G C32A U55A C57U C93G A142C U148C, the “polymerase ribozyme fitness (log ratio)” value was -4.04.
In the case of C10U A23G G50U U53A G71C C87A A120U, the “polymerase ribozyme fitness (log ratio)” value is reported as no more than -4.2.
With C10A C14G U77A C85A G92A A110G A122G the “polymerase ribozyme fitness (log ratio)” value was no more than -4.2.
With U9C U15G C93A the “polymerase ribozyme fitness (log ratio)” value was no more than -4.2.
With C10U C14G A28U G58C U61C G70C C76G C96U A138G G140U C149G the “polymerase ribozyme fitness (log ratio)” value was no more than -4.2.
In the case of C10G C85U A91C C105A, the “polymerase ribozyme fitness (log ratio)” value is reported as no more than -4.2.
With C10G A20U C35A C85G A142C the “polymerase ribozyme fitness (log ratio)” value was no more than -4.2.
For C10G A28G U82G G94C C95A G140A, the “polymerase ribozyme fitness (log ratio)” value was no more than -4.2.
For C10U G50C A64C G65C C93A A142U, the “polymerase ribozyme fitness (log ratio)” value was no more than -4.2.
With U9G A49U C85U the “polymerase ribozyme fitness (log ratio)” value was no more than -4.2.
In the case of C10U C14U A17C U56A U134A A137U U151C, the “polymerase ribozyme fitness (log ratio)” value is reported as no more than -4.2.
In the case of U9G G74A G84A A107G, the “polymerase ribozyme fitness (log ratio)” value is reported as no more than -4.2.
In the case of C10U C35U A47C C85A A89C C93U C95U, the “polymerase ribozyme fitness (log ratio)” value is reported as no more than -4.2.
For C10G G11U U15C G84A G88U, the “polymerase ribozyme fitness (log ratio)” value was no more than -4.2.
For C10G A28U C54U C85G C116U, the “polymerase ribozyme fitness (log ratio)” value was no more than -4.2.
In the case of U9G A52G C72G C96U C105A A115G U127C G133U, the “polymerase ribozyme fitness (log ratio)” value is reported as no more than -4.2.
With C10A C32A U56G G80C U82G C87U A98U the “polymerase ribozyme fitness (log ratio)” value was no more than -4.2.
For U9C A22C C54U G71U G84A C95A A98U C108A C114U A115C, the “polymerase ribozyme fitness (log ratio)” value was no more than -4.2.
In the case of U9G A16U A64U C85G U135C U144G A150U, the “polymerase ribozyme fitness (log ratio)” value is reported as no more than -4.2.
In the case of U9G G46C C76A C85G U90G A121U, the “polymerase ribozyme fitness (log ratio)” value is reported as no more than -4.2.
With U9G G34U C85A U139A the “polymerase ribozyme fitness (log ratio)” value was no more than -4.2.
With C10A A23U C35G C95G G128A the “polymerase ribozyme fitness (log ratio)” value was no more than -4.2.
In the case of U9C A30G A66C G84A A150C, the “polymerase ribozyme fitness (log ratio)” value is reported as no more than -4.2.
For C10U G94A U148G, the “polymerase ribozyme fitness (log ratio)” value was no more than -4.2.
In the case of C10G A91G A97G C108A C118G, the “polymerase ribozyme fitness (log ratio)” value is reported as no more than -4.2.
In the case of U9G U15C C87G A113G A142G, the “polymerase ribozyme fitness (log ratio)” value is reported as no more than -4.2.
For U9C A28C C36A C87U C116U, the “polymerase ribozyme fitness (log ratio)” value was no more than -4.2.
With C10U C85A the “polymerase ribozyme fitness (log ratio)” value was -3.35.
In the case of C10U C85G, the “polymerase ribozyme fitness (log ratio)” value is reported as -3.57.
In the case of U9C A23U G58U A73U C79A G83C G86A A107G G141C, the “polymerase ribozyme fitness (log ratio)” value is reported as no more than -4.2.
With U9G C10A C43U C57G C99A the “polymerase ribozyme fitness (log ratio)” value was no more than -4.2.
With C10G C51U G92A G124C the “polymerase ribozyme fitness (log ratio)” value was no more than -4.2.
For U9G C10G A17G A22G A23U G50A A73G, the “polymerase ribozyme fitness (log ratio)” value was no more than -4.2.
In the case of C10A U31G C35G G42C C69U G92A C95G G100A G143A, the “polymerase ribozyme fitness (log ratio)” value is reported as -3.74.
For U9G A23C U56A A73U G86C, the “polymerase ribozyme fitness (log ratio)” value was no more than -4.2.
With C10U A37C C75U C95G the “polymerase ribozyme fitness (log ratio)” value was no more than -4.2.
With U9G U31G G42U U53A G58C the “polymerase ribozyme fitness (log ratio)” value was no more than -4.2.
In the case of U9G C51G G84A G141C, the “polymerase ribozyme fitness (log ratio)” value is reported as no more than -4.2.
In the case of U9C U44A G46C A47G C85U A121G, the “polymerase ribozyme fitness (log ratio)” value is reported as no more than -4.2.
In the case of U9G A12C A16U U31A G62A G71A G80C C87U C108U, the “polymerase ribozyme fitness (log ratio)” value is reported as no more than -4.2.
With U9G A16G C18A C63U the “polymerase ribozyme fitness (log ratio)” value was no more than -4.2.
With C10U G58U G83A A89C A110G U148A the “polymerase ribozyme fitness (log ratio)” value was no more than -4.2.
With C10A G34U C57U C76U C95G C116G the “polymerase ribozyme fitness (log ratio)” value was no more than -4.2.
With C10G U53C C93U A107G the “polymerase ribozyme fitness (log ratio)” value was no more than -4.2.
For C10U A12C C54A C85U C108U, the “polymerase ribozyme fitness (log ratio)” value was no more than -4.2.
With C10A C96U G143A the “polymerase ribozyme fitness (log ratio)” value was no more than -4.2.
With C10A C85U G133C U134A U146G the “polymerase ribozyme fitness (log ratio)” value was no more than -4.2.
In the case of C10U G59A C93U A137G, the “polymerase ribozyme fitness (log ratio)” value is reported as no more than -4.2.
With C10G C54U U56A G62U G94A C149U the “polymerase ribozyme fitness (log ratio)” value was no more than -4.2.
For C10A C35U A97U, the “polymerase ribozyme fitness (log ratio)” value was no more than -4.2.
In the case of C10A C54A A91C C105A C129A G143C, the “polymerase ribozyme fitness (log ratio)” value is reported as no more than -4.2.
With C10U C27U U55A G59C G84A the “polymerase ribozyme fitness (log ratio)” value was no more than -4.2.
For U9C C14U C76A C87G, the “polymerase ribozyme fitness (log ratio)” value was no more than -4.2.
For C10A A20G A23C A24U A26G C85G A91G G100U A115G, the “polymerase ribozyme fitness (log ratio)” value was no more than -4.2.
For C10U A19U A23U C57U G58C C75U U78G C95U C105U, the “polymerase ribozyme fitness (log ratio)” value was no more than -4.2.
For C10U G50A U55G A91G G143C, the “polymerase ribozyme fitness (log ratio)” value was no more than -4.2.
With U9G A20C C32G A89C U144A the “polymerase ribozyme fitness (log ratio)” value was no more than -4.2.
In the case of U9G C35U A52C U61A C87A U101C C125A, the “polymerase ribozyme fitness (log ratio)” value is reported as no more than -4.2.
With C10A A41G C103A A110G the “polymerase ribozyme fitness (log ratio)” value was no more than -4.2.
With C10G A21U A22U U55A G59C A142C the “polymerase ribozyme fitness (log ratio)” value was no more than -4.2.
For C10U G42C C69A C95G A142G A150G, the “polymerase ribozyme fitness (log ratio)” value was no more than -4.2.
For U9G A23U G58A G59U C79A G81U C85A A120C U139C, the “polymerase ribozyme fitness (log ratio)” value was no more than -4.2.
In the case of U9G C27G A28C A47U G70A A91C, the “polymerase ribozyme fitness (log ratio)” value is reported as no more than -4.2.
With C10U A17U A41C G50C G84A the “polymerase ribozyme fitness (log ratio)” value was no more than -4.2.
With C10A A41U C51G C87A the “polymerase ribozyme fitness (log ratio)” value was no more than -4.2.
With C10G A30C G92U A107G U148C A150U the “polymerase ribozyme fitness (log ratio)” value was no more than -4.2.
In the case of C10A A20G A41G G46A A47C C57U C85G G133U, the “polymerase ribozyme fitness (log ratio)” value is reported as no more than -4.2.
In the case of C10U A41U G70C G83U C108U U134A A142G, the “polymerase ribozyme fitness (log ratio)” value is reported as no more than -4.2.
For C10U A24U U33G A41G U56A C85U A91C, the “polymerase ribozyme fitness (log ratio)” value was no more than -4.2.
With U9C C57G G140C the “polymerase ribozyme fitness (log ratio)” value was no more than -4.2.
In the case of C10U A29G G59A G81A A97G, the “polymerase ribozyme fitness (log ratio)” value is reported as no more than -4.2.
For C10U G65A G92A, the “polymerase ribozyme fitness (log ratio)” value was no more than -4.2.
With C10G A52C C93U the “polymerase ribozyme fitness (log ratio)” value was no more than -4.2.
With U9G C18G A30U C35G C87G A147G the “polymerase ribozyme fitness (log ratio)” value was no more than -4.2.
In the case of U9G A29C C32G G58C C76A C79A C118G G141C G143A, the “polymerase ribozyme fitness (log ratio)” value is reported as no more than -4.2.
In the case of U9G G48C G62A U82A G84U, the “polymerase ribozyme fitness (log ratio)” value is reported as no more than -4.2.
For U9G C10G C87G C93U G124C, the “polymerase ribozyme fitness (log ratio)” value was no more than -4.2.
For C10A C69U, the “polymerase ribozyme fitness (log ratio)” value was no more than -4.2.
For U9G U139C, the “polymerase ribozyme fitness (log ratio)” value was no more than -4.2.
With U9G G11C C76A G92C U134C U139G A150G the “polymerase ribozyme fitness (log ratio)” value was no more than -4.2.
With U9G A20U G84A U102C A115G the “polymerase ribozyme fitness (log ratio)” value was no more than -4.2.
